Source: patent publication US20240279278A1, “NMU RECEPTOR 2 AGONISTS” (Boehringer Ingelheim International GmbH, priority 2023, published 2024)

T1: human neuromedin U receptor 1 (human, UniProt Q9HB89 24-426)
T1 sequence (looked up): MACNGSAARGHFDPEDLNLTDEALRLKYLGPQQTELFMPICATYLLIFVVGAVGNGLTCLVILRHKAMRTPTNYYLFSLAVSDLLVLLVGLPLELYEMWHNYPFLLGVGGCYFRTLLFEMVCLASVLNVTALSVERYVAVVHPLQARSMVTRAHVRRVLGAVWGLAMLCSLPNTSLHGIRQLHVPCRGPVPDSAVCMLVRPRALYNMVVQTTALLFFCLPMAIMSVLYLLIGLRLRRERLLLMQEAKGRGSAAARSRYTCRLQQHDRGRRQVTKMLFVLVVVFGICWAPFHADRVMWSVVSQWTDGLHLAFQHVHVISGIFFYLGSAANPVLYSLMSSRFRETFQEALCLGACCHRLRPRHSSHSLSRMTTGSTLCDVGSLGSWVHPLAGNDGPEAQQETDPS

B1: C20DA-gGlu3-Sar15-AEPipAc-Tyr-Phe-NMeLeu-Nle-Arg-Pro-Arg-Gly-NH2 (peptide)
peptide: EEEXXXXXXXXXXXXXXXXYFLXRPRG
HELM: PEPTIDE1{[O=C(O)CCCCCCCCCCCCCCCCCCC(=O)[*:2]].[gGlu].[gGlu].[gGlu].[Sar].[Sar].[Sar].[Sar].[Sar].[Sar].[Sar].[Sar].[Sar].[Sar].[Sar].[Sar].[Sar].[Sar].[Sar].[O=C(CN1CCN(CCN[*:1])CC1)[*:2]].Y.F.[meL].[Nle].R.P.R.G.[am]}$$$$V2.0
SMILES: CCCC[C@H](NC(=O)[C@H](CC(C)C)N(C)C(=O)[C@H](Cc1ccccc1)NC(=O)[C@H](Cc1ccc(O)cc1)NC(=O)CN1CCN(CCNC(=O)CN(C)C(=O)CN(C)C(=O)CN(C)C(=O)CN(C)C(=O)CN(C)C(=O)CN(C)C(=O)CN(C)C(=O)CN(C)C(=O)CN(C)C(=O)CN(C)C(=O)CN(C)C(=O)CN(C)C(=O)CN(C)C(=O)CN(C)C(=O)CN(C)C(=O)CC[C@H](NC(=O)CC[C@H](NC(=O)CC[C@H](NC(=O)CCCCCCCCCCCCCCCCCCC(=O)O)C(=O)O)C(=O)O)C(=O)O)CC1)C(=O)N[C@@H](CCCNC(=N)N)C(=O)N1CCC[C@H]1C(=O)N[C@@H](CCCNC(=N)N)C(=O)NCC(N)=O
B2: C20DA-gGlu3-Sar15-AEPipAc-Tyr-Phe-NMeLeu-Nle-Arg-NMeAla-Arg-Gly-NH2 (peptide)
peptide: EEEXXXXXXXXXXXXXXXXYFLXRARG
HELM: PEPTIDE1{[O=C(O)CCCCCCCCCCCCCCCCCCC(=O)[*:2]].[gGlu].[gGlu].[gGlu].[Sar].[Sar].[Sar].[Sar].[Sar].[Sar].[Sar].[Sar].[Sar].[Sar].[Sar].[Sar].[Sar].[Sar].[Sar].[O=C(CN1CCN(CCN[*:1])CC1)[*:2]].Y.F.[meL].[Nle].R.[meA].R.G.[am]}$$$$V2.0
SMILES: CCCC[C@H](NC(=O)[C@H](CC(C)C)N(C)C(=O)[C@H](Cc1ccccc1)NC(=O)[C@H](Cc1ccc(O)cc1)NC(=O)CN1CCN(CCNC(=O)CN(C)C(=O)CN(C)C(=O)CN(C)C(=O)CN(C)C(=O)CN(C)C(=O)CN(C)C(=O)CN(C)C(=O)CN(C)C(=O)CN(C)C(=O)CN(C)C(=O)CN(C)C(=O)CN(C)C(=O)CN(C)C(=O)CN(C)C(=O)CN(C)C(=O)CC[C@H](NC(=O)CC[C@H](NC(=O)CC[C@H](NC(=O)CCCCCCCCCCCCCCCCCCC(=O)O)C(=O)O)C(=O)O)C(=O)O)CC1)C(=O)N[C@@H](CCCNC(=N)N)C(=O)N(C)[C@@H](C)C(=O)N[C@@H](CCCNC(=N)N)C(=O)NCC(N)=O
B3: C18DA-gGlu3-Sar15-AEPipAc-Tyr-Phe-NMeLeu-Nle-Arg-NMeAla-Arg-Gly-NH2 (peptide)
peptide: EEEXXXXXXXXXXXXXXXXYFLXRARG
HELM: PEPTIDE1{[O=C(O)CCCCCCCCCCCCCCCCC(=O)[*:2]].[gGlu].[gGlu].[gGlu].[Sar].[Sar].[Sar].[Sar].[Sar].[Sar].[Sar].[Sar].[Sar].[Sar].[Sar].[Sar].[Sar].[Sar].[Sar].[O=C(CN1CCN(CCN[*:1])CC1)[*:2]].Y.F.[meL].[Nle].R.[meA].R.G.[am]}$$$$V2.0
SMILES: CCCC[C@H](NC(=O)[C@H](CC(C)C)N(C)C(=O)[C@H](Cc1ccccc1)NC(=O)[C@H](Cc1ccc(O)cc1)NC(=O)CN1CCN(CCNC(=O)CN(C)C(=O)CN(C)C(=O)CN(C)C(=O)CN(C)C(=O)CN(C)C(=O)CN(C)C(=O)CN(C)C(=O)CN(C)C(=O)CN(C)C(=O)CN(C)C(=O)CN(C)C(=O)CN(C)C(=O)CN(C)C(=O)CN(C)C(=O)CN(C)C(=O)CC[C@H](NC(=O)CC[C@H](NC(=O)CC[C@H](NC(=O)CCCCCCCCCCCCCCCCC(=O)O)C(=O)O)C(=O)O)C(=O)O)CC1)C(=O)N[C@@H](CCCNC(=N)N)C(=O)N(C)[C@@H](C)C(=O)N[C@@H](CCCNC(=N)N)C(=O)NCC(N)=O

The binders below were run against T1, human neuromedin U receptor 1 (assay: cell-based or functional assay).

Row | EC50 (hNMUR1) buffer [nM] | Binder
1 | 220 | B1
2 | 720 | B2
3 | 1100 | B3
